From US5238825A, “Preparation and use of a cyclodextrinase for preparing maltooligosaccharides” (Kikkoman Corporation, priority 1989, dated 1993)

What was measured:
Settings in all cases: other: substrate of Bacillus sphaericus cyclodextrinase; pH 7.5; 40.0 °C
[1] = substrate: OC[C@H]1O[C@@H]2O[C@H]3[C@H](O)[C@@H](O)[C@@H](O[C@H]4[C@H](O)[C@@H](O)[C@@H](O[C@H]5[C@H](O)[C@@H](O)[C@@H](O[C@H]6[C@H](O)[C@@H](O)[C@@H](O[C@H]7[C@H](O)[C@@H](O)[C@@H](O[C@H]8[C@H](O)[C@@H](O)[C@@H](O[C@H]1[C@H](O)[C@H]2O)O[C@@H]8CO)O[C@@H]7CO)O[C@@H]6CO)O[C@@H]5CO)O[C@@H]4CO)O[C@@H]3CO; assay: purified protein, by the assay type
[2] = substrate: OC[C@H]1O[C@@H]2O[C@H]3[C@H](O)[C@@H](O)[C@@H](O[C@H]4[C@H](O)[C@@H](O)[C@@H](O[C@H]5[C@H](O)[C@@H](O)[C@@H](O[C@H]6[C@H](O)[C@@H](O)[C@@H](O[C@H]7[C@H](O)[C@@H](O)[C@@H](O[C@H]8[C@H](O)[C@@H](O)[C@@H](O[C@H]9[C@H](O)[C@@H](O)[C@@H](O[C@H]1[C@H](O)[C@H]2O)O[C@@H]9CO)O[C@@H]8CO)O[C@@H]7CO)O[C@@H]6CO)O[C@@H]5CO)O[C@@H]4CO)O[C@@H]3CO; assay: purified protein, by the assay type
[3] = substrate: OC[C@H]1O[C@H](O[C@H]2[C@H](O)[C@@H](O)[C@@H](O[C@H]3[C@H](O)[C@@H](O)[C@@H](O[C@H]4[C@H](O)[C@@H](O)C(O)O[C@@H]4CO)O[C@@H]3CO)O[C@@H]2CO)[C@H](O)[C@@H](O)[C@@H]1O; assay: purified protein, by the assay type
[4] = substrate: OC[C@H]1O[C@H](O[C@H]2[C@H](O)[C@@H](O)[C@@H](O[C@H]3[C@H](O)[C@@H](O)[C@@H](O[C@H]4[C@H](O)[C@@H](O)[C@@H](O[C@H]5[C@H](O)[C@@H](O)[C@@H](O[C@H]6[C@H](O)[C@@H](O)C(O)O[C@@H]6CO)O[C@@H]5CO)O[C@@H]4CO)O[C@@H]3CO)O[C@@H]2CO)[C@H](O)[C@@H](O)[C@@H]1O; assay: purified protein, by the assay type
[5] = substrate: OC[C@H]1O[C@@H]2O[C@H]3[C@H](O)[C@@H](O)[C@@H](O[C@H]4[C@H](O)[C@@H](O)[C@@H](O[C@H]5[C@H](O)[C@@H](O)[C@@H](O[C@H]6[C@H](O)[C@@H](O)[C@@H](O[C@H]7[C@H](O)[C@@H](O)[C@@H](O[C@H]1[C@H](O)[C@H]2O)O[C@@H]7CO)O[C@@H]6CO)O[C@@H]5CO)O[C@@H]4CO)O[C@@H]3CO; assay: Reaction rate parameters of the present enzyme for cyclodextrins and maltooligosaccharides; assay type: biochemical
Method: (§1) When the amount of the enzyme was small, the reducing power of the enzyme was determined according to Nelson-Somogyi's method, with glucose as standard.

[6] = substrate: OC[C@H]1O[C@H](O[C@H]2[C@H](O)[C@@H](O)[C@@H](O[C@H]3[C@H](O)[C@@H](O)[C@@H](O[C@H]4[C@H](O)[C@@H](O)[C@@H](O[C@H]5[C@H](O)[C@@H](O)C(O)O[C@@H]5CO)O[C@@H]4CO)O[C@@H]3CO)O[C@@H]2CO)[C@H](O)[C@@H](O)[C@@H]1O; assay: as above; assay type: biochemical
Method: as §1

[7] = substrate: OC[C@H]1O[C@H](O[C@H]2[C@H](O)[C@@H](O)[C@@H](O[C@H]3[C@H](O)[C@@H](O)[C@@H](O[C@H]4[C@H](O)[C@@H](O)[C@@H](O[C@H]5[C@H](O)[C@@H](O)[C@@H](O[C@H]6[C@H](O)[C@@H](O)[C@@H](O[C@H]7[C@H](O)[C@@H](O)C(O)O[C@@H]7CO)O[C@@H]6CO)O[C@@H]5CO)O[C@@H]4CO)O[C@@H]3CO)O[C@@H]2CO)[C@H](O)[C@@H](O)[C@@H]1O; assay: as above; assay type: biochemical
Method: as §1

B1: cyclodextrinase (Lysinibacillus sphaericus) (protein)
chain: MIMLEAVYHRMGQNWSYAYNDSTLHIRIRTKRDNVPRIDLHCGEKYDPEKYKETIPMERMASDGLFDYWQAAVQPRYRRLVYYFALHSDNGDAVYFMEKGFFDQPPKVMYEGLFDFPYLNRQDVHTPPAWVKEAIFYQIFPERFANGDPSNDPEGVQEWGGTPSAGNFFGGDLQGVIDHLDYLSDLGVNALYFNPLFAATTNHKYDTADYMKIDPQFGTNEKLKELVDACHARGMRVLLDAVFNHCGHTFPPFVDVLNNGLNSRYADWFHVREWPLRVVDGIPTYDTFAFEPIMPKLNTGNEEVKAYLLNVGRYWLEEMGLDGWRLDVANEVDHQFWREFRSEIKRINPSAYILGEIMHDSMPWLQGDQFDAVMNYPFTNILLNFFARRLTNAAEFAQAIGTQLAGYPQQVTEVSFNLLGSHDTTRLLTLCSGNVERMKLATLFQLTYQGTPCIYYGDEIGMDGEYDPLNRKCMEWDKSKQNTELLAFFRSMISLRKAHPALRGSGLRFLPVLEHPQLLVYERWDDNERFLIMLNNEDAPVNVVIPAAQPGASWRTVNGEPCAVVEESSIQAALPPYGYAILHAPIAGTAE
notes: is cultured in a medium to yield and accumulate said cyclodextrinase, and this enzyme is collected from the culture; made in house; host or cells: Bacillus sphaericus E-244 (FERM BP-2458), the natural wild-type producer strain; not recombinant
Protein B1 has a Km [1] of 380 µM, a Km [2] of 1430 µM and a Km [3] of 1540 µM. It also gave a Km [4] of 1110 µM, a Km [5] of 710 µM and a Km [6] of 950 µM. The Km [7] was 690 µM.
